Data reported in paper PMC7851489.

Biological target: soluble extracellular domain of poliovirus receptor (sPVR)
Assay: BLI

Row | Kd | Molecule
1 | 0.033 µM | mouse TIGIT protein (from UniProt P86176 29-148) (receptor)
2 | 6.13 µM | mouse CD226 protein (receptor) EETLWDTTVRLSETMTLECVYPLTHNLTQVEWTKNTGTKTVSIAVYNPNHNMHIESNYLHRVHFLNSTVGFRNMSLSFYNASEADIGIYSCLFHAFPNGPWEKKIKVVWSDSFEIAAPSDSYLSAEPGQDVTLTCQLPRTWPVQQVIWEKVQPHQVDILASCNLSQETRYTSKYLRQTRSNCSQGSMKSILIIPNAMAADSGLYRCRSEAITGKNKSFVIRLIITDGGTNKHFILP
